# Laboratory results published in US20110124071A1, “METHODS AND COMPOSITIONS FOR PRODUCING HYDROCARBONS” (priority 2009, published 2011).
# B1: RS991709941: Synechococcus sp. RS9917 putative decarbonylase (SEQ ID NO: 23) (protein, listed as Synechococcus sp.)
# chain: MPTLETSEVAVLEDSMASGSRLPDFTSEAYKDAYSRINAIVIEGEQEAHDNYIALGTLIPEQKDELARLARMEMKHMKGFTSCGRNLGVEADLPFAKEFFAPLHGNFQAALQEGKVVTCLLIQALLIEAFAISAYHIYIPVADPFARKITEGVVKDEYTHLNYGQEWLKANFEASKDELMEANKANLPLIRSMLEQVAADAAVLQMEKEDLIEDFLIAYQEALCEIGFSSRDIARMAAAALAV
# B2: PM1231: Prochlorococcus marinus MIT9313 putative decarbonylase (SEQ ID NO: 17) (protein, listed as Prochlorococcus marinus)
# chain: MPTLEMPVAAVLDSTVGSSEALPDFTSDRYKDAYSRINAIVIEGEQEAHDNYIAIGTLLPDHVEELKRLAKMEMRHKKGFTACGKNLGVEADMDFAREFFAPLRDNFQTALGQGKTPTCLLIQALLIEAFAISAYHTYIPVSDPFARKITEGVVKDEYTHLNYGEAWLKANLESCREELLEANRENLPLIRRMLDQVAGDAAVLQMDKEDLIEDFLIAYQESLTEIGFNTREITRMAAAALVS
# B3: gll3146: Gloeobacter violaceus PCC7421 putative decarbonylase (SEQ ID NO: 15) (protein, listed as Gloeobacter violaceus)
# chain: VNRTAPSSAALDYRSDTYRDAYSRINAIVLEGEREAHANYLTLAEMLPDHAEALKKLAAMENRHFKGFQSCARNLEVTPDDPFARAYFEQLDGNFQQAAAEGDLTTCMVIQALIIECFAIAAYNVYIPVADAFARKVTEGVVKDEYTHLNFGQQWLKERFVTVREGIERANAQNLPIVWRMLNAVEADTEVLQMDKEAIVEDFMIAYGEALGDIGFSMRDVMKMSARGLASAPRQ
# B4: tll1313: Thermosynechococcus elongatus BP-1 putative decarbonylase (SEQ ID NO: 11) (protein, listed as Thermosynechococcus elongatus)
# chain: MTTATATPVLDYHSDRYKDAYSRINAIVIEGEQEAHDNYIDLAKLLPQHQEELTRLAKMEARHKKGFEACGRNLSVTPDMEFAKAFFEKLRANFQRALAEGKTATCLLIQALIIESFAIAAYNIYIPMADPFARKITESVVKDEYSHLNFGEIWLKEHFESVKGELEEANRANLPLVWKMLNQVEADAKVLGMEKDALVEDFMIQYSGALENIGFTTREIMKMSVYGLTGA
# B5: PMM0532: Prochlorococcus marinus CCMP1986 putative decarbonylase (SEQ ID NO: 19) (protein, listed as Prochlorococcus marinus)
# chain: MQTLESNKKTNLENSIDLPDFTTDSYKDAYSRINAIVIEGEQEAHDNYISLATLIPNELEELTKLAKMELKHKRGFTACGRNLGVQADMIFAKEFFSKLHGNFQVALSNGKTTTCLLIQAILIEAFAISAYHVYIRVADPFAKKITQGVVKDEYLHLNYGQEWLKENLATCKDELMEANKVNLPLIKKMLDQVSEDASVLAMDREELMEEFMIAYQDTLLEIGLDNREIARMAMAAIV
# B6: ATCC51142 cce—0778: Cyanothece sp. ATCC51142 putative decarbonylase (SEQ ID NO: 27) (protein, listed as Cyanothece sp.)
# chain: MQELALRSELDFNSETYKDAYSRINAIVIEGEQEAYQNYLDMAQLLPEDEAELIRLSKMENRHKKGFQACGKNLNVTPDMDYAQQFFAELHGNFQKAKAEGKIVTCLLIQSLIIEAFAIAAYNIYIPVADPFARKITEGVVKDEYTHLNFGEVWLKEHFEASKAELEDANKENLPLVWQMLNQVEKDAEVLGMEKEALVEDFMISYGEALSNIGFSTREIMKMSAYGLRAA
# B7: Cyan7425—0398: Cyanothece sp. PCC7425 putative decarbonylase (SEQ ID NO: 29) (protein, listed as Cyanothece sp.)
# chain: MPQVQSPSAIDFYSETYQDAYSRIDAIVIEGEQEAHDNYLKLTELLPDCQEDLVRLAKMEARHKKGFEACGRNLKVTPDMEFAQQFFADLHNNFQKAAAANKIATCLVIQALIIECFAIAAYNIYIPVADDFARKITENVVKDEYTHLNFGEEWLKANFDSQREEVEAANRENLPIVWRMLNQVETDAHVLGMEKEALVESFMIQYGEALENIGFSTREIMRMSVYGLSAA
# B8: alr5283: Nostoc sp. PCC7210 putative decarbonylase (SEQ ID NO: 7) (protein, listed as Nostoc sp.)
# chain: MQQVAADLEIDFKSEKYKDAYSRINAIVIEGEQEAYENYIQLSQLLPDDKEDLIRLSKMESRHKKGFEACGRNLQVSPDMEFAKEFFAGLHGNFQKAAAEGKIVTCLLIQSLIIECFAIAAYNIYIPVADDFARKITEGVVKDEYSHLNFGEVWLQKNFAQSKAELEEANRHNLPIVWKMLNQVADDAAVLAMEKEALVEDFMIQYGEALSNIGFTTRDIMRMSAYGLTAA
# B9: PMN2A—1863: Prochlorococcus mariunus NATL2A putative decarbonylase (SEQ ID NO: 21) (protein, listed as Prochlorococcus marinus)
# chain: MQAFASNNLTVEKEELSSNSLPDFTSESYKDAYSRINAVVIEGEQEAYSNFLDLAKLIPEHADELVRLGKMEKKHMNGFCACGRNLAVKPDMPFAKTFFSKLHNNFLEAFKVGDTTTCLLIQCILIESFAISAYHVYIRVADPFAKRITEGVVQDEYLHLNYGQEWLKANLETVKKDLMRANKENLPLIKSMLDEVSNDAEVLHMDKEELMEEFMIAYQDSLLEIGLDNREIARMALAAVI
# B10: Cyan7425—2986: Cyanothece sp. PCC7425 putative decarbonylase (SEQ ID NO: 31) (protein, listed as Cyanothece sp.)
# chain: MSDCATNPALDYYSETYRNAYRRVNGIVIEGEKQAYDNFIRLAELLPEYQAELTRLAKMEARHQKSFVACGQNLKVSPDLDFAAQFFAELHQIFASAANAGQVATCLVVQALIIECFAIAAYNTYLPVADEFARKVTASVVQDEYSHLNFGEVWLQNAFEQCKDEIITANRLALPLIWKMLNQVTGELRILGMDKASLVEDFSTRYGEALGQIGFKLSEILSLSVQGLQAVTP
# Assays:
# E. coli MG1655 = test: Coexpression of putative decarbonylase with S. elongatus PCC7942 orf1594 in E. coli, GC-MS of extracts; format: cell-based; conditions: coexpressed with S. elongatus PCC7942 orf1594 in E. coli MG1655, M9 minimal media
# Experimental: After a 1 μl splitless injection (inlet temperature held at 300° C.) onto the GC/MS column, the oven was held at 100° C. for 3 mins. The temperature was ramped up to 320° C. at a rate of 20° C./min. The oven was held at 320° C. for an additional 5 min. The flow rate of the carrier gas helium was 1.3 ml/min. The MS quadrapole scanned from 50 to 550 m/z. Retention times and fragmentation patterns of product peaks were compared with authentic references to confirm peak identity.
# The genomic DNA encoding Synechococcus elongatus PCC7942 orf1594 (YP—400611; putative aldehyde-generating enzyme) (SEQ ID NO: 65) was amplified and cloned into the NcoI and EcoRI sites of vector OP-80 (pCL1920 derivative) under the control of the Ptrc promoter. The resulting construct (“OP80-PCC7942—1594”) was transformed into E. coli MG1655 and the cells were grown at 37° C. in M9 minimal media with 1% (w/v) glucose as carbon source and supplemented with 100 μg/ml spectinomycin. When the culture reached OD600 of 0.8-1.0, it was induced with 1 mM IPTG and cells were grown for an additional 18-20 h at 37° C. Cells from 0.5 ml of culture were extracted with 0.5 ml of ethyl acetate. After sonication for 60 min, the sample was centrifuged at 15,000 rpm for 5 min. The solvent layer was analyzed by GC-MS as described in Example 1.
# The genomic DNA encoding Synechococcus elongatus PCC7942 orf1593 (YP—400610; putative decarbonylase) (SEQ ID NO: 1) was amplified and cloned into the NdeI and XhoI sites of vector OP-183 (pACYC derivative) under the control of the Ptrc promoter. The resulting construct was cotransformed with OP80-PCC7942—1594 into E. coli MG1655 and the cells were grown at 37° C. in M9 minimal media supplemented with 100 μg/ml spectinomycin and 100 μg/ml carbenicillin. The cells were cultured and extracted as in Example 3 and analyzed by GC-MS as described in Example 1. […]
# [1] = tested on: E. coli MG1655 ΔfadD lacZ::Ptrc-′tesA; test: Heterologous expression in a fatty aldehyde-producing E. coli strain with MSMEG—5739, GC-MS; format: cell-based; conditions: decarbonylase coexpressed with carboxylic acid reductase MSMEG—5739
Molecule,fatty aldehyde decarbonylase activity (alkane/alkene production) (E. coli MG1655),conversion of fatty aldehydes provided by MSMEG—5739 to alkanes [1]
PCC7942—1593: Synechococcus elongatus PCC7942 orf1593 putative decarbonylase (SEQ ID NO: 1),active fatty aldehyde decarbonylase,–
B1,active fatty aldehyde decarbonylase,converted fatty aldehydes provided by MSMEG—5739 to the corresponding alkanes
B2,active fatty aldehyde decarbonylase,–
B3,active fatty aldehyde decarbonylase,converted fatty aldehydes provided by MSMEG—5739 to the corresponding alkanes
B4,active fatty aldehyde decarbonylase,–
B5,active fatty aldehyde decarbonylase,converted fatty aldehydes provided by MSMEG—5739 to the corresponding alkanes
B6,active fatty aldehyde decarbonylase,–
B7,active fatty aldehyde decarbonylase,–
B8,active fatty aldehyde decarbonylase,converted fatty aldehydes provided by MSMEG—5739 to the corresponding alkanes
B9,active fatty aldehyde decarbonylase,–
B10,active fatty aldehyde decarbonylase,–
